Changes are numbered by the printed parent chain. Names and notes keep the numbering of the source.
T1: PUF4 RNA-binding domain (Saccharomyces cerevisiae, UniProt P25339 537-888)
T1 sequence: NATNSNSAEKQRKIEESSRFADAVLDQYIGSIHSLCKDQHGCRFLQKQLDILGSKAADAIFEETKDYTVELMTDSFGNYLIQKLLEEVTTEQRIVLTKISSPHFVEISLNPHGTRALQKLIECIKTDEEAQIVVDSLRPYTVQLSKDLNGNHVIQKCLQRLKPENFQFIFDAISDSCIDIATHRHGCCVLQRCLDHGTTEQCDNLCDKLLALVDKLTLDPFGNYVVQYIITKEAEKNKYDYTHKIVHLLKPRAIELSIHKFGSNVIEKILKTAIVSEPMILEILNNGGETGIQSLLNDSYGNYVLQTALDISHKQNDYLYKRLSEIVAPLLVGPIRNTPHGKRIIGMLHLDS

B1: Ia_S1_P3E.1_K3.1_C3.1_H3.1_[A4C]_A3.1_F3.1_T3.1 (ssRNA)
RNA: UCUCUUUGUCUAUAUCUCUU
B2: Ib_S4_P5E.1_K5.1_C5.1_H5.1_A5.1_F5.1_[T8G]_[A10G]_T5.1 (ssRNA)
RNA: UUUGACAACUGAUCGUUCUUUCUUGUAUUAGUGUUCUUUCUCGAUCAGUUGUCUUU
B3: Ib_S4_P5E.1_K5.1_C5.1_H5.1_A5.1_F5.1_[T9A]_[A10T]_T5.1 (ssRNA)
RNA: B2 RNA with G31U, U32A, G33U
B4: Ib_S4_P5E.1_K5.1_C5.1_H5.1_A5.1_F5.1_[T8G]_[A10T]_T5.1 (ssRNA)
RNA: B2 RNA with G33U
B5: Ib_S4_P5E.1_K5.1_C5.1_H5.1_[G2C]_A5.1_F5.1_[T8C]_T5.1 (ssRNA)
RNA: B2 RNA with G25C, G31C, G33A
B6: Ib_S4_P5E.1_K5.1_C5.1_H5.1_[T1C]_A5.1_F5.1_[T8A]_T5.1 (ssRNA)
RNA: B2 RNA with U24C, G31A, G33A
B7: Ib_S4_P5E.1_K5.1_C5.1_H5.1_[G2A]_A5.1_F5.1_[T8G]_T5.1 (ssRNA)
RNA: B2 RNA with G25A, G33A
B8: Ib_S4_P5E.1_K5.1_C5.1_H5.1_A5.1_F5.1_[T9G]_[A10C]_T5.1 (ssRNA)
RNA: B2 RNA with G31U, U32G, G33C
B9: Ib_S4_P5E.1_K5.1_C5.1_H5.1_A5.1_F5.1_[T8A]_[A10G]_T5.1 (ssRNA)
RNA: B2 RNA with G31A
B10: Ib_S4_P5E.1_K5.1_C5.1_H5.1_[T3C]_A5.1_F5.1_[T8C]_T5.1 (ssRNA)
RNA: B2 RNA with U26C, G31C, G33A
B11: Ib_S4_P5E.1_K5.1_C5.1_H5.1_[A4C]_A5.1_F5.1_[A10T]_T5.1 (ssRNA)
RNA: B2 RNA with A27C, G31U, G33U
B12: Ib_S4_P5E.1_K5.1_C5.1_H5.1_[A4C]_A5.1_F5.1_[T8A]_T5.1 (ssRNA)
RNA: B2 RNA with A27C, G31A, G33A
B13: Ib_S4_P5E.1_K5.1_C5.1_H5.1_[A4G]_A5.1_F5.1_[T8C]_T5.1 (ssRNA)
RNA: B2 RNA with A27G, G31C, G33A
B14: Ib_S4_P5E.1_K5.1_C5.1_H5.1_[T3C]_A5.1_F5.1_[T8A]_T5.1 (ssRNA)
RNA: B2 RNA with U26C, G31A, G33A
B15: Ib_S4_P5E.1_K5.1_C5.1_H5.1_[A4C]_A5.1_F5.1_[T8C]_T5.1 (ssRNA)
RNA: B2 RNA with A27C, G31C, G33A
B16: Ib_S4_P5E.1_K5.1_C5.1_H5.1_[T3C]_A5.1_F5.1_[A10C]_T5.1 (ssRNA)
RNA: B2 RNA with U26C, G31U, G33C
B17: Ib_S4_P5E.1_K5.1_C5.1_H5.1_A5.1_[T5G]_F5.1_[T8C]_T5.1 (ssRNA)
RNA: B2 RNA with U28G, G31C, G33A
B18: Ib_S4_P5E.1_K5.1_C5.1_H5.1_[T1C]_A5.1_F5.1_[T8C]_T5.1 (ssRNA)
RNA: B2 RNA with U24C, G31C, G33A
B19: Ib_S4_P5E.1_K5.1_C5.1_H5.1_[A4T]_A5.1_F5.1_[A10T]_T5.1 (ssRNA)
RNA: B2 RNA with A27U, G31U, G33U
B20: Ib_S4_P5E.1_K5.1_C5.1_H5.1_[A4T]_A5.1_F5.1_[T8G]_T5.1 (ssRNA)
RNA: B2 RNA with A27U, G33A
B21: Ib_S4_P5E.1_K5.1_C5.1_H5.1_[T1G]_A5.1_F5.1_[T9A]_T5.1 (ssRNA)
RNA: B2 RNA with U24G, G31U, U32A, G33A
B22: Ib_S4_P5E.1_K5.1_C5.1_H5.1_[A4G]_A5.1_F5.1_[A10C]_T5.1 (ssRNA)
RNA: B2 RNA with A27G, G31U, G33C
B23: Ib_S4_P5E.1_K5.1_C5.1_H5.1_[T1C]_A5.1_F5.1_[A10C]_T5.1 (ssRNA)
RNA: B2 RNA with U24C, G31U, G33C
B24: Ib_S4_P5E.1_K5.1_C5.1_H5.1_[A4T]_A5.1_F5.1_[T9A]_T5.1 (ssRNA)
RNA: B2 RNA with A27U, G31U, U32A, G33A
B25: Ib_S4_P5E.1_K5.1_C5.1_H5.1_[G2A]_A5.1_F5.1_[T8A]_T5.1 (ssRNA)
RNA: B2 RNA with G25A, G31A, G33A
B26: Ib_S4_P5E.1_K5.1_C5.1_H5.1_[A4C]_A5.1_F5.1_[A10C]_T5.1 (ssRNA)
RNA: B2 RNA with A27C, G31U, G33C
B27: Ib_S4_P5E.1_K5.1_C5.1_H5.1_[A4C]_A5.1_F5.1_[T9A]_T5.1 (ssRNA)
RNA: B2 RNA with A27C, G31U, U32A, G33A
B28: Ib_S4_P5E.1_K5.1_C5.1_H5.1_[G2A]_A5.1_F5.1_[A10T]_T5.1 (ssRNA)
RNA: B2 RNA with G25A, G31U, G33U
B29: Ic_S4_P5E.1_K5.1_C5.1_H5.1_A5.1_F5.1_[T9A]_[A10C]_T5.1 (ssRNA)
RNA: B2 RNA with G31U, U32A, G33C
B30: Ic_S4_P5E.1_K5.1_C5.1_H5.1_A5.1_F5.1_[T8C]_[A10G]_T5.1 (ssRNA)
RNA: B2 RNA with G31C
B31: Ia_S4_P4E.1_K4.1_C4.1_H4.1_A4.1_F4.1_[A9G]_T4.1 (ssRNA)
RNA: UUUGACAACUGAUCGUUCUUUCUUGUAUAUUGUUCUUUCUCGAUCAGUUGUCUUU
B32: Ib_S4_P4E.1_K4.1_C4.1_H4.1_A4.1_[T5G]_[A6T]_F4.1_T4.1 (ssRNA)
RNA: B31 RNA with U28G, A29U, G32A
B33: Ia_S4_P4E.1_K4.1_C4.1_H4.1_[G2T]_A4.1_F4.1_T4.1 (ssRNA)
RNA: B31 RNA with G25U, G32A
B34: Ib_S4_P4E.1_K4.1_C4.1_H4.1_[A4C]_A4.1_[T7C]_F4.1_T4.1 (ssRNA)
RNA: B31 RNA with A27C, U30C, G32A
B35: Ib_S4_P4E.1_K4.1_C4.1_H4.1_A4.1_[A6C]_[T7A]_F4.1_T4.1 (ssRNA)
RNA: B31 RNA with A29C, U30A, G32A
B36: Ib_S4_P4E.1_K4.1_C4.1_H4.1_[A4C]_A4.1_[T7A]_F4.1_T4.1 (ssRNA)
RNA: B31 RNA with A27C, U30A, G32A
B37: Ib_S4_P4E.1_K4.1_C4.1_H4.1_[A4C]_A4.1_[A6G]_F4.1_T4.1 (ssRNA)
RNA: B31 RNA with A27C, A29G, G32A
B38: Ia_S4_P4E.1_K4.1_C4.1_H4.1_[T3C]_A4.1_F4.1_T4.1 (ssRNA)
RNA: B31 RNA with U26C, G32A
B39: Ib_S4_P4E.1_K4.1_C4.1_H4.1_A4.1_[A6C]_[T7G]_F4.1_T4.1 (ssRNA)
RNA: B31 RNA with A29C, U30G, G32A
B40: Ic_S4_P4E.1_K4.1_C4.1_H4.1_A4.1_[A6T]_[T7C]_F4.1_T4.1 (ssRNA)
RNA: B31 RNA with A29U, U30C, G32A
B41: Ic_S4_P4E.1_K4.1_C4.1_H4.1_A4.1_[T5C]_[T7G]_F4.1_T4.1 (ssRNA)
RNA: B31 RNA with U28C, U30G, G32A
B42: Ia_S4_P4E.1_K4.1_C4.1_H4.1_[G2A]_A4.1_F4.1_T4.1 (ssRNA)
RNA: B31 RNA with G25A, G32A
B43: Ib_S4_P4E.1_K4.1_C4.1_H4.1_A4.1_[A6C]_[T7C]_F4.1_T4.1 (ssRNA)
RNA: B31 RNA with A29C, U30C, G32A
B44: Ib_S4_P4E.1_K4.1_C4.1_H4.1_[A4C]_A4.1_[A6C]_F4.1_T4.1 (ssRNA)
RNA: B31 RNA with A27C, A29C, G32A
B45: Ib_S4_P4E.1_K4.1_C4.1_H4.1_A4.1_[T5G]_[A6C]_F4.1_T4.1 (ssRNA)
RNA: B31 RNA with U28G, A29C, G32A
B46: Ib_S4_P4E.1_K4.1_C4.1_H4.1_A4.1_[A6T]_[T7A]_F4.1_T4.1 (ssRNA)
RNA: B31 RNA with A29U, U30A, G32A
B47: Ia_S4_P4E.1_K4.1_C4.1_H4.1_[G2C]_A4.1_F4.1_T4.1 (ssRNA)
RNA: B31 RNA with G25C, G32A
B48: Ib_S4_P4E.1_K4.1_C4.1_H4.1_A4.1_[T5A]_[T7C]_F4.1_T4.1 (ssRNA)
RNA: B31 RNA with U28A, U30C, G32A
B49: Ib_S4_P4E.1_K4.1_C4.1_H4.1_[A4T]_A4.1_[T7C]_F4.1_T4.1 (ssRNA)
RNA: B31 RNA with A27U, U30C, G32A
B50: Ib_S4_P4E.1_K4.1_C4.1_H4.1_[A4T]_A4.1_[A6C]_F4.1_T4.1 (ssRNA)
RNA: B31 RNA with A27U, A29C, G32A
B51: Ib_S4_P4E.1_K4.1_C4.1_H4.1_A4.1_[A6T]_[T7G]_F4.1_T4.1 (ssRNA)
RNA: B31 RNA with A29U, U30G, G32A
B52: Ib_S4_P4E.1_K4.1_C4.1_H4.1_[A4T]_A4.1_[A6G]_F4.1_T4.1 (ssRNA)
RNA: B31 RNA with A27U, A29G, G32A
B53: Ib_S4_P4E.1_K4.1_C4.1_H4.1_[A4C]_A4.1_[A6T]_F4.1_T4.1 (ssRNA)
RNA: B31 RNA with A27C, A29U, G32A
B54: Ia_S4_P4E.1_K4.1_C4.1_H4.1_[A4G]_A4.1_F4.1_T4.1 (ssRNA)
RNA: B31 RNA with A27G, G32A
B55: Ib_S4_P4E.1_K4.1_C4.1_H4.1_A4.1_[T5C]_[A6T]_F4.1_T4.1 (ssRNA)
RNA: B31 RNA with U28C, A29U, G32A
B56: Ic_S4_P4E.1_K4.1_C4.1_H4.1_A4.1_[T5C]_[T7A]_F4.1_T4.1 (ssRNA)
RNA: B31 RNA with U28C, U30A, G32A
B57: Ib_S4_P4E.1_K4.1_C4.1_H4.1_[A4T]_A4.1_[T7G]_F4.1_T4.1 (ssRNA)
RNA: B31 RNA with A27U, U30G, G32A

biological target: T1, PUF4 RNA-binding domain; assay: Mg; RNA-MaP; 20 mM Na-HEPES pH 7.4, 30 mM KOAc, 0.75 mM MgCl2, 0.1% Tween-20, 5% glycerol, 0.1 mg/mL BSA, 2 mM DTT; 25 C; 0.0125-409.6 nM protein; conditions: tags: N-His6-TEV cleaved; C-SNAP kept, Cy3B-labelled; label: tethered on chip by stalled RNA polymerase

Row | Binder | Kd
1 | B1 | 1170 nM
2 | B2 | 488 nM
3 | B3 | 1.18 nM
4 | B4 | 393 nM
5 | B5 | > 2300 nM
6 | B6 | 964 nM
7 | B7 | 628 nM
8 | B8 | 37 nM
9 | B9 | 36.4 nM
10 | B10 | 478 nM
11 | B11 | 201 nM
12 | B12 | 26.8 nM
13 | B13 | 28.4 nM
14 | B14 | 1010 nM
15 | B15 | 35.7 nM
16 | B16 | 1790 nM
17 | B17 | 13.1 nM
18 | B18 | 688 nM
19 | B19 | 119 nM

Row | Binder | Kd
20 | B20 | 107 nM
21 | B21 | 1300 nM
22 | B22 | 105 nM
23 | B23 | > 2300 nM
24 | B24 | 33.2 nM
25 | B25 | 598 nM
26 | B26 | 493 nM
27 | B27 | 57.1 nM
28 | B28 | 259 nM
29 | B29 | 7.38 nM
30 | B30 | 50.3 nM
31 | B31 | 3.07 nM
32 | B32 | 5.58 nM
33 | B33 | 253 nM
34 | B34 | 12.9 nM
35 | B35 | 0.977 nM
36 | B36 | 19 nM
37 | B37 | 191 nM
38 | B38 | 21 nM

Row | Binder | Kd
39 | B39 | 14.5 nM
40 | B40 | 2.33 nM
41 | B41 | 1.45 nM
42 | B42 | 10.3 nM
43 | B43 | 3.08 nM
44 | B44 | 110 nM
45 | B45 | 4.82 nM
46 | B46 | 1.36 nM
47 | B47 | 227 nM
48 | B48 | 2.55 nM
49 | B49 | 7.04 nM
50 | B50 | 54.8 nM
51 | B51 | 5.79 nM
52 | B52 | 64.1 nM
53 | B53 | 29.8 nM
54 | B54 | 1.25 nM
55 | B55 | 1.04 nM
56 | B56 | 0.996 nM
57 | B57 | 30.9 nM
